Results taken from patent CN113667015A.

T1: 人PSGL-1 (on THP-1 cells) (human) (UniProt Q14242)
T1 sequence (looked up): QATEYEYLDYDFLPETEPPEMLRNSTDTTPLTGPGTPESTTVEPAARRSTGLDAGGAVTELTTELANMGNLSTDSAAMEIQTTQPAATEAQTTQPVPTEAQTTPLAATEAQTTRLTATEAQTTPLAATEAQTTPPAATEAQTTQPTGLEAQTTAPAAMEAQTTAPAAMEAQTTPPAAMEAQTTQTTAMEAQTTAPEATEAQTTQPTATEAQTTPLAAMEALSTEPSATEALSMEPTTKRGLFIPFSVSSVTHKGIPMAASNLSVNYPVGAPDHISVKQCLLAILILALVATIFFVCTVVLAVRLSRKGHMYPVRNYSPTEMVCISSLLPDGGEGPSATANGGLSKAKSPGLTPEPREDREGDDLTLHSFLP


Target: T1, 人PSGL-1 (on THP-1 cells) (human)
Assay: flow cytometry competition on THP-1 cells; competitor recombinant human P-selectin/CD62P Fc chimera; antibody 10 μg/mL

| Binder | fold decrease of CD62P+CD45+/总CD45+细胞 at 10μg/mL |
| --- | --- |
| 抗体Rh001-6 (antibody, V domains shown) VH: QVQLLESGPGLVKPSETLSLSCTVSGGSISGYYYWSWIRQPPGKGLEWIGGIYGTSGSAYYNPSLKSRVTISKDTSKNQFSLKLSSVTAADTAVYYCTRHASGGANTDLWGQGTLVTVSS VL: DIQMTQSPLSLPVTPGQPASISCRSSQSLVHSDGKTYLNWLQQKPGQPPRRLIYQVSNRDSGVPDRFSGSGAGTDFTLKISRVEAEDVGVYYCGQGTNVPFTFGPGTKVEIK | 2 倍 |
| 抗体Rh001-22 (antibody, V domains shown) VH: QVQLLESGPGLVKPSETLSLTCAVSGGSLTSHYWGWIRQPPGKGLEWVGSISGSSGNPEYNPSLKSRATISRDTSENQFSLRVNSVTAADTAVYHCVRWQRLENYFDSWGQGTLVTVSS VL: DIQMTQPPSVSGDPGQRVTISCTGSTSNIGTYYVSWYRQVPGTVPKLLIYENNKRPSGVSDRFSGSKSGTSASLTITGLQPGDEADYYCLAWDDGLSAGLFGGGTKVEIK | 1.5 倍 |
